How the values were obtained:
[1] = biological target: T1, His-Pns6 (Rice dwarf phytoreovirus (RDV), UniProt Q85438 1-509); assay: competition EMSA; vs labeled S3-5; equal to other dsRNAs; EMSA: 50 mM Tris-HCl pH 7.5, 50 mM NaCl, 10% glycerol, 20 min on ice; northwestern: 20 mM Tris-HCl pH 7.5, 50 mM NaCl, 0.1% Triton X-100, 1 mM DTT, 1 mM EDTA, 0.02% Ficoll 400 (renaturation and washes at 4 C), UV crosslinking after washing; details: protein: recombinant, tags: His (pET28a), blunt
T1 sequence: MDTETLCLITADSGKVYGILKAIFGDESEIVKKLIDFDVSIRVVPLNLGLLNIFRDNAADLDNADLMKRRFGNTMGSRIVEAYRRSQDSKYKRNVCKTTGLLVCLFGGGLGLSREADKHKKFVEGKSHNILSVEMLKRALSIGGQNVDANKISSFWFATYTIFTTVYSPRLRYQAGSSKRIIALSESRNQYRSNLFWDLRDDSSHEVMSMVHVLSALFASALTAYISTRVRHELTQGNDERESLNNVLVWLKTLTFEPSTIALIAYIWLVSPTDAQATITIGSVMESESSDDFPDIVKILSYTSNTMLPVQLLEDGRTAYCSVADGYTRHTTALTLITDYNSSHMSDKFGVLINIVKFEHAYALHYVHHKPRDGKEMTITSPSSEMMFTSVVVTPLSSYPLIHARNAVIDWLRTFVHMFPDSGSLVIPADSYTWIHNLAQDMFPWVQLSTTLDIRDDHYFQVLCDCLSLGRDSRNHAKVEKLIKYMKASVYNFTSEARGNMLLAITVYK

[2] = biological target: T1, His-Pns6; assay: competition EMSA; vs labeled S3-5a; less than sense strands; EMSA: 50 mM Tris-HCl pH 7.5, 50 mM NaCl, 10% glycerol, 20 min on ice; northwestern: 20 mM Tris-HCl pH 7.5, 50 mM NaCl, 0.1% Triton X-100, 1 mM DTT, 1 mM EDTA, 0.02% Ficoll 400 (renaturation and washes at 4 C), UV crosslinking after washing; details: protein: recombinant; tags: His (pET28a); label: 32P 5' end when probe
[3] = biological target: T1, His-Pns6; assay: competition EMSA; vs labeled S3-5a; highest; EMSA: 50 mM Tris-HCl pH 7.5, 50 mM NaCl, 10% glycerol, 20 min on ice; northwestern: 20 mM Tris-HCl pH 7.5, 50 mM NaCl, 0.1% Triton X-100, 1 mM DTT, 1 mM EDTA, 0.02% Ficoll 400 (renaturation and washes at 4 C), UV crosslinking after washing; details: protein: recombinant; tags: His (pET28a); label: 32P 5' end when probe
[4] = biological target: T1, His-Pns6; assay: northwestern blot; EMSA: 50 mM Tris-HCl pH 7.5, 50 mM NaCl, 10% glycerol, 20 min on ice; northwestern: 20 mM Tris-HCl pH 7.5, 50 mM NaCl, 0.1% Triton X-100, 1 mM DTT, 1 mM EDTA, 0.02% Ficoll 400 (renaturation and washes at 4 C), UV crosslinking after washing; details: protein: recombinant; tags: His (pET28a); label: 32P 5' end when probe; 3' overhang 2 nt (UU) on both strands, 19 bp
[5] = biological target: T1, His-Pns6; assay: competition EMSA; vs labeled S3-5a; higher than antisense strands; EMSA: 50 mM Tris-HCl pH 7.5, 50 mM NaCl, 10% glycerol, 20 min on ice; northwestern: 20 mM Tris-HCl pH 7.5, 50 mM NaCl, 0.1% Triton X-100, 1 mM DTT, 1 mM EDTA, 0.02% Ficoll 400 (renaturation and washes at 4 C), UV crosslinking after washing; details: protein: recombinant; tags: His (pET28a); label: 32P 5' end when probe

B1: S3-5 (dsRNA)
RNA 1: GGCAAAAUCGAGCGAACAAU
RNA 2: AUUGUUCGCUCGAUUUUGCC
**Q.** Does B1 bind ([1]; label: 32P 5' end when probe)?
**A.** Result: binds

B2: S3m (dsRNA)
RNA 1: CAAUCAAUAUGCUCGCCCCA
RNA 2: UGGGGCGAGCAUAUUGAUUG
**Q.** Does B2 bind [1]?
**A.** Result: binds

B3: S3-3a (ssRNA)
RNA: AUCAGGAACCAAGCAAAACA
**Q.** Does B3 bind [2]?
**A.** Result: binds

B4: S3-5s (ssRNA)
RNA: GGCAAAAUCGAGCGAACAAU
**Q.** Does B4 bind [3]?
**A.** Result: binds

B5: dsR (dsRNA)
RNA 1: UUCUCCGAACGUGUCACGUUU
RNA 2: ACGUGACACGUUCGGAGAAUU
**Q.** Does B5 bind [4]?
**A.** Result: binds

B6: S3-3s (ssRNA)
RNA: UGUUUUGCUUGGUUCCUGAU
**Q.** Does B6 bind [5]?
**A.** Result: binds

B7: S3-3 (dsRNA)
RNA 1: UGUUUUGCUUGGUUCCUGAU
RNA 2: AUCAGGAACCAAGCAAAACA
**Q.** Does B7 bind [1]?
**A.** Result: binds

B8: S3-5a (ssRNA)
RNA: AUUGUUCGCUCGAUUUUGCC
**Q.** Does B8 bind [2]?
**A.** Result: binds

Reference: PMC3176798, “Movement Protein Pns6 of Rice dwarf phytoreovirus Has Both ATPase and RNA Binding Activities”
